In the series the test system is MS2 coat protein. The series can be described thus: apparent KD of MS2 coat protein; higher = weaker reporter binding. The note with it: Eterna round: R107. A digest of the protocol: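 Values are apparent KD, taken as the median for each design of fits to normalised binding curves from individual clusters. The designed RNA switches were transcribed on-chip from Illumina sequencing clusters and exposed to SNAP-549-labelled MS2 coat protein at twofold increasing amounts from 0.7 or 1.5 nM to 3 µM. Titration used 100 mM Tris-HCl pH 7.5, 80 mM KCl and 4 mM MgCl2, without or with constant ligand.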

Where [1] appears, read: input ligand: theophylline 20 uM.
Setting [2] is: input ligand: theophylline 2 mM.
[3] abbreviates: input ligand: tryptophan 2.4 mM.

The source of these data is the supplement of paper PMC9170038.

Turning to “GAGUAGUAGACGGCCGCCACUAAACAUGAGGAUCACCCAUGUAGUGAUCCGUUACCUAGCGUAGAUAGGACCGGGUCAGAUAGUA [Exclusion Tryptophan B GF 14]”, the “apparent KD of MS2 coat protein” value reads like this: (input ligand: arginine 13.2 mM) 21.6 nM; under setting [1], 31.7 nM; under setting [2], 25.9 nM.
In the case of “AGAGAGGCGCAUGAUACCAGCUUGGCCUAACAUGAGGAUCACCCAUGUCAAUGGGCCUUAAGCCCUUGGCAGCAUAGGGUGUCCU [Xeestixexe]”, the “apparent KD of MS2 coat protein” value by setting is: (input ligand: arginine 13.2 mM) 72.7 nM; (input ligand: none) 72.1 nM; under setting [1], 186 nM; under setting [2], 25.9 nM; under setting [3], 85.9 nM.
As for “UCUGGGUGCGCAAGGACCUGGAGUUGCGAUACCAGCACGGUAACGUGCCCUUGGCAGCGCACAUGAGGAUCACCCAUGUGGUGUU [#1 Exclusion - Theophylline A Attempt #18 (HarryS)]”, the “apparent KD of MS2 coat protein” value is, setting by setting: (input ligand: arginine 13.2 mM) 65.6 nM; under setting [1], 247 nM; under setting [3], 204 nM.
Consider “AGUACUCGAACGGAUACCAGCCGGACAUGAGGAUCACCCAUGUCCUACCAUUGUUCGGUUGGCCCUUGGCAGCCGUUCGUGUACA [Omei Theo B SS A v4]”, for which the “apparent KD of MS2 coat protein” value was found to be 125 nM (input ligand: arginine 13.2 mM); 930 nM (input ligand: none); 366 nM under setting [1]; 26.7 nM under setting [2]; 591 nM under setting [3].
As to “GGUUGGUUUAUAUAUAGAUUGAUUACUGAAGGAGCGGGAAAUAACCCAGGUAGGUCGCAGAGAUCCACAUGAGGAUCACCCAUGU [!0.I]”, the “apparent KD of MS2 coat protein” value stood at 34.2 nM (input ligand: arginine 13.2 mM); 39.5 nM (input ligand: none); 50.6 nM under setting [1]; 53 nM under setting [2]; 42.9 nM under setting [3].
For “AAUAAUAGGUGAUCCUAACGAGUGGCAUAACGAGGACCGGUACGGCCGCCACUCGAACAUGAGGAUCACCCAUGUAGUCACUCGA [M'-T'-T-MS2-T'' - Design 5]”, the “apparent KD of MS2 coat protein” value is, setting by setting: (input ligand: arginine 13.2 mM) 82.9 nM; under setting [1], 280 nM; under setting [2], 751 nM.
As to “AGUACUCGAACGGAUACCAGCCGGACAUGAGGAUCACCCAUGUCCUACCAUGUUUCGGUUGGCCCUUGGCAGCCGUUCGUGUACA [Omei Theo B SS A v1]”, the “apparent KD of MS2 coat protein” value turned out to be 207 nM (input ligand: arginine 13.2 mM), 428 nM under setting [1] and 736 nM under setting [3].
In the same order, the values of “UGACAUUGCUCAGAUACCAGACAUGAGGAUCACCCAUGUACCAAGGUACCCGAAAGGAAUGUCCCUUGGCAGCUGAGCAAUGUCU [TheoBX 3 #MS2Left #Theo2 #StaticStem]” are 11.7 nM, 11.9 nM and 11 nM.
As to “AAUAACAUGAGGAUCACCCAUGUAAGUAAACGAGGACCGGUACGGCCGCCACUCGAAUAAAUAAAGUACCGGUAAGAUCCAGGGA [Default title]”, the “apparent KD of MS2 coat protein” value stood at 14.6 nM (input ligand: arginine 13.2 mM), 19 nM under setting [1] and 15.4 nM under setting [2].
“AGAUUCGACACGGCCGCCACUCGUGACAGAUUUCGCAGUGGUCAACAUGAGGAUCACCCAUGUCUGAGGACCGGGUGUUGAGUCU [XTryp B #9]”: the “apparent KD of MS2 coat protein” value runs as follows: (input ligand: arginine 13.2 mM) 36.4 nM; under setting [1], 39.3 nM; under setting [2], 41.1 nM.
On to “GUAUGGAAACAUACUAGGGUAUCAUGAGAUACCAGUACAGAAAUGUACCCUUGGCAGCUCAAGCAUACAUGAGGAUCACCCAUGU [Ex Theophylline A 7]”, for which the “apparent KD of MS2 coat protein” value by setting is: (input ligand: arginine 13.2 mM) 15 nM; under setting [1], 22.7 nM; under setting [3], 15.8 nM.
Regarding “UGUGCAUGAGUUGGAAAAGCUCAUGGGCAUCGAGGACCGGUACGGCCGCCACUCGGCUGUACAUGAGGAUCACCCAUGUCAGGGU [#1 Same State - Tryptophan A Attempt #23 (HarryS)]”, the “apparent KD of MS2 coat protein” value by setting is: (input ligand: arginine 13.2 mM) 82 nM; (input ligand: none) 288 nM; under setting [1], 141 nM; under setting [2], 170 nM; under setting [3], 891 nM.
Regarding “CGGUUUGUGAUGGAUACCAGCAGAGAGAAUGUUUAUCCUGACAUGAGGAUCACCCAUGUGUGCCCUUGGCAGCUGUUGUGGGCUG [8.Y]”, the “apparent KD of MS2 coat protein” value reads like this: (input ligand: arginine 13.2 mM) 42.4 nM; under setting [1], 102 nM; under setting [3], 55.8 nM.
In the case of “CACAUGAGGAUCACCCAUGUCUGAACUGAAGGAGCGCUAAAUAAGGCAGGUAGGUCGCGGAAUCCUGUGUGCAUAUGCACACGGG [9.X]”, the “apparent KD of MS2 coat protein” value is 20.7 nM (input ligand: arginine 13.2 mM); 22.6 nM (input ligand: none); 30.5 nM under setting [1]; 28.9 nM under setting [2]; 19.8 nM under setting [3].
In the case of “UCGUAGCUAGGAAGGAGCGCAUACUUCACAUGAGGAUCACCCAUGUCGAGACGUGAGUCAGUGCAGGUAGGUCGCCUAGCUAUGA [Same State - Arginine B (Freestyle 26)]”, the “apparent KD of MS2 coat protein” value came to 18.2 nM (input ligand: arginine 13.2 mM); 17.6 nM (input ligand: none); 22.3 nM under setting [1]; 21.5 nM under setting [2]; 19.3 nM under setting [3].
Turning to “UAAACUACACAUGAGGAUCACCCAUGUGGCCGAGGACCGGUACGGCCGCCACUCGUGUGUUAAUAAAAGAACUGCAAGGUUCUUC [Uslausce]”, the “apparent KD of MS2 coat protein” value is, setting by setting: (input ligand: arginine 13.2 mM) 76.1 nM; under setting [1], 325 nM; under setting [2], 748 nM.
As to “ACGACGCAUACAGAUACCAGUAGAACAUGAGGAUCACCCAUGUCUGAGGCGCUCCGCCACUGCCCUUGGCAGCUGUAUGCGUCAG [SSTheo B #11]”, the “apparent KD of MS2 coat protein” value was 9.42 nM (input ligand: arginine 13.2 mM), 12.6 nM under setting [1] and 9.81 nM under setting [3].
Consider “GCAGUGGGUUAUAAGUAAUAGAAUUCUGAAGGAGCGUGAUGAAACACAGGUAGGUCGCAGGAACAUGAGGAUCACCCAUGUACGG [Same State Arginine A GF20]”, for which the “apparent KD of MS2 coat protein” value is, setting by setting: (input ligand: arginine 13.2 mM) 61.4 nM; (input ligand: none) 58.7 nM; under setting [1], 51.6 nM; under setting [2], 37.6 nM; under setting [3], 50.3 nM.
In the same order, the values of “UUAAUCUAUAAUGAAAACAUUAUAGCAGAAGGAGCGUGAUAAAACACAGGUAGGUCGCUGAAGGGAACAUGAGGAUCACCCAUGU [AstrosSSArgA#12]” are 24.3 nM, 28.7 nM, 40.5 nM, 39.4 nM and 23.6 nM.
Take “AGGUGCGGCACGGCCGCCACUGCGGUGGUGUGACAUGAGGAUCACCCAUGUUGUCAUGCGGCCCUUAGGACCGGGUGGCGUGCCU [#1 Exclusion - Tryptophan B Attempt #16 (HarryS)]”: the “apparent KD of MS2 coat protein” value turned out to be 27.9 nM (input ligand: arginine 13.2 mM), 64.4 nM under setting [1] and 68.9 nM under setting [2].
Take “GCACCAGGUACGGAUACCAGCUAUAGGCCCAAUGGGCGACAUGAGGAUCACCCAUGUGAUGGCCCUUGGCAGCUGUACCUGGUGC [SSThB NP+V+V2 #9]”: the “apparent KD of MS2 coat protein” value (input ligand: arginine 13.2 mM) is 148 nM, the “apparent KD of MS2 coat protein” value under setting [1] was 193 nM and the “apparent KD of MS2 coat protein” value under setting [3] was 218 nM.
For “UACUUGCUGACGGCCGCCACUAGAACAUGAGGAUCACCCAUGUAUUCUAGUCGUCAUGGGUGGACUAGGACCGGGUCAGCAAGAU [(Trp1)-(Ms2)-(T)'-(M)'-(Trp2)_Design8]”, the “apparent KD of MS2 coat protein” value reads like this: (input ligand: arginine 13.2 mM) 30.7 nM; (input ligand: none) 33.8 nM; under setting [1], 41.8 nM; under setting [2], 34.7 nM; under setting [3], 192 nM.
The corresponding values for “GGAACAUGAGGAUCACCCAUGUCGAGUGGUCGAGGACCGGUACGGCCGCCACUCGACAUUGCUCAUAGGUAUAGCGUGAGAACGC [Same State - Tryptophan 1]” are 100 nM, 326 nM, 546 nM, 961 nM and 618 nM.
In the case of “AGAGUUAGACAAAAGUCUAGCUCACCAGAAGGAGCGUCCGAAAGGACAGGUAGGUCGCUGGUGCACGAGGAUCACCCGUGUUCCU [ArgAS 21 #OpenEnded #AlternativeMS2]”, the “apparent KD of MS2 coat protein” value runs as follows: (input ligand: arginine 13.2 mM) 57.9 nM; (input ligand: none) 80.6 nM; under setting [1], 90.2 nM; under setting [2], 118 nM; under setting [3], 67.3 nM.
For the sequence “CGUGAUCCCUGUGAUACCAGAAGUACAUGAGGAUCACCCAUGUCAAACACAAAACCAAGCUUCCCUUGGCAGCAUAGUCGUUAAG [Esmaenbiza]”, the “apparent KD of MS2 coat protein” value is 67.1 nM (input ligand: arginine 13.2 mM), 240 nM under setting [1] and 224 nM under setting [3].
For the sequence “AAUAAUAAGGCGGCCGCCACUAAACAUGAGGAUCACCCAUGUCUCGAGCGCAUGCAUAAGGGAUGUAGGACCGGGCCAAUAAUAA [Exclusion - Tryptophan B (Freestyle 2)]”, the “apparent KD of MS2 coat protein” value is 22 nM (input ligand: arginine 13.2 mM); 29.7 nM (input ligand: none); 32.6 nM under setting [1]; 27.9 nM under setting [2]; 23.6 nM under setting [3].
In the same order, the values of “AAAGGACAUGAGGAUCACCCAUGUCUCGAUACCAGCCGAUCAUCAGGCCCUUGGCAGCGAGACAAGGGUCAUGGAUCGCGGUUCU [Beerusmage]” are 11.7 nM, 11.4 nM, 17.4 nM, 12.3 nM and 13.9 nM.
